Experimental findings from patent US7262005 are described below.

One data set deals with caspases. Description: cell-based or functional assay.
Data set [1] has as its target 2XUb-DEVD-Bla fusion protein, P62593.

code Z = not defined here; fmk = not defined here

Chain of 2XUb-DEVD-Bla fusion protein, P62593 (P62593 whole entry, looked up, the tested form may be a part): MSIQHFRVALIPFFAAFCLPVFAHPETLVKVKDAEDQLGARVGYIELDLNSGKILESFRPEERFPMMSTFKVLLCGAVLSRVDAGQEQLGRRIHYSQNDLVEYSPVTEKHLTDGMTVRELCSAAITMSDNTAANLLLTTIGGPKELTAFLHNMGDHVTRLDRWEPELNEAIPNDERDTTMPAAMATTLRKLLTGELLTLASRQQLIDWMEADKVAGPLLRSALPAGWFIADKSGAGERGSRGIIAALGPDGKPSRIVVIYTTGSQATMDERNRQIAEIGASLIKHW

For {code Z}-Val-Ala-Asp-fmk (reading uncertain; also: printed as Z-VAD-fmk) [Z-VAD-fmk], in the data set with caspases, the 460/530 emission ratio, + αFas/+ inh/+ chx, Jurkat cells expressing 2XUb-DEVD-Bla, 10 µM Z-VAD-fmk (460/530 emission ratio) amounted to 0.08 and the IC50 of inhibition of anti-Fas-induced caspase activity in Jurkat cells expressing 2XUb-DEVD-Bla (β-lactamase activity, CCF2 460/530 nm ratio) was 5 µM.

B1: purified recombinant caspase-3 (protein)
chain: SGISLDNSYKMDYPEMGLCIIINNKNFHKSTGMTSRSGTDVDAANLRETFRNLKYEVRNKNDLTREEIVELMRDVSKEDHSKRSSFVCVLLSHGEEGIIFGTNGPVDLKKITNFFRGDRCRSLTGKPKLFIIQACRGTELDCGIETDSGVDDDMACHKIPVEADFLYAYSTAPGYYSWRNSKDGSWFIQSLCAMLKQYADKLEFMHILTRVNRKVATEFESFSFDATFHAKKQIPCIVSMLTKELYFYH
For the molecule B1, the “in vitro cleavage of the 35S-labeled fusion by 25 nM purified caspase-3, SDS-PAGE and autoradiography” value in data set [1] is reported as “over 90% cleavage within 5 minutes”.
